Results published in publication PMC10590275 (Nature structural & molecular biology, 2023).

Tests used:
[1] = molecular target: human dynein_(MOTOR)^MT-B (microtubule-bound mutant motor domain) (human | T. thermophilus); assay: mass photometry
mass photometry = molecular target: the molecule itself; assay: mass photometry

B1: human LIS1-SNAP (natural protein)
chain: VLSQRQRDELNRAIADYLRSNGYEEAYSVFKKEAELDVNEELDKKYAGLLEKKWTSVIRLQKKVMELESKLNEAKEEFTSGGPLGQKRDPKEWIPRPPEKYALSGHRSPVTRVIFHPVFSVMVSASEDATIKVWDYETGDFERTLKGHTDSVQDISFDHSGKLLASCSADMTIKLWDFQGFECIRTMHGHDHNVSSVAIMPNGDHIVSASRDKTIKMWEVQTGYCVKTFTGHREWVRMVRPNQDGTLIASCSNDQTVRVWVVATKECKAELREHEHVVECISWAPESSYSSISEATGSETKKSGKPGPFLLSGSRDKTIKMWDVSTGMCLMTLVGHDNWVRGVLFHSGGKFILSCADDKTLRVWDYKNKRCMKTLNAHEHFVTSLDFHKTAPYVVTGSVDQTVKVWECR
- stoichiometry N [1]: 1 LIS1 dimer per dynein_(MOTOR) monomer
- stoichiometry N (mass photometry): 2
